Assay results: the supplement of paper PMC12338614
± gives the uncertainty stated by the source.

B1: library; numbered along this chain (parent)
chain: MEVVDPQQLGMFTEGELMSVGMDTFIHRIDSTEVIYQPRRKRAKLIGKYLMGDLLGEGSYGKVKEVLDSETLCRRAVKILKKKKLRRIPNGEANVKKEIQLLRRLRHKNVIQLVDVLYNEEKQKMYMVMEYCVCGMQEMLDSVPEKRFPVCQAHGYFCQLIDGLEYLHSQGIVHKDIKPGNLLLTTGGTLKISDLGVAEALHPFAADDTCRTSQGSPAFQPPEIANGLDTFSGFKVDIWSAGVTLYNITTGLYPFEGDNIYKLFENIGKGSYAIPGDCGPPLSDLLKGMLEYEPAKRFSIRQIRQHSWFRKKHPPAEAPVPIPPSPDTKDRWRSMTVVPYLEDLHGADEDEDLFDIEDDIIYTQDFTVPGQVPEEEASHNGQRRGLPKAVCMNGTEAAQLSTKSRAEGRAPNPARKACSASSKIRRLSACKQQ

Variants of: B1
Test: STK11 functional score (HeLa growth suppression), rescaled enrichment; synonymous median = 1, nonsense median = 0 (normalised score)
Conditions: with HeLa; variant type: missense
In short: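 The functional score takes the post/pre-selection log ratio, corrects it to wild type, rescales it to synonymous and nonsense medians, and merges it over codons and replicate transfections, with error from bootstrapping. Counts came from tiled gDNA amplicons sequenced on NextSeq (~2 million reads per tile). The libraries were POPCode codon-randomised, codon-optimised STK11 integrated by Bxb1 at an AAVS1 landing pad in HeLa, three regions with three transfections each.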

Row | Variant | STK11 functional score
1 | MEVVDPQQLGMFTEGELMSVGMDTFIHRIDSTEVIYQPRRKRAKLIGKYLMGDLLGEGSYGKVKEVLDSETLCRRAVKILKKKKLRRIPNGEANVKKEIQLLRRLRHKNVIQLVDVLYNEEKQKMYMVMEYCVCGMQEMLDSVPEKRFPVCQAHGYFCQLIDGLEYLHSQGIVHKDIKPGNLLLTTGGTLKISDLGVAEALHPFAADDTCRTSQGSPAFQPPEIANGLDTFSGFKVDIWSAGVTLYNITTGLYPFEGDNIYKLFENIGKGSYAIPGDCGPPLSDLLKGMLEYEPAKRFSIRQIRQHSWFRKKHPPAEAPVPIPPSPDTKDRWRSMTVVPYLEDLHGADEDEDLFDIEDDIIYTQDFTVPGQVPEEEASHNGQRRGLPKAVCMNGTEAAQLSTKSRAEGRAPNPARKFCSASSKIRRLSACKQQ [A417F] | 1.15 ± 0.13
2 | MEVVDPQQLGMFTEGELMSVGMDTFIHRIDSTEVIYQPRRKRAKLIGKYLMGDLLGEGSYGKVKEVLDSETLCRRAVKILKKKKLRRIPNGEANVKKEIQLLRRLRHKNVIQLVDVLYNEEKQKMYMVMEYCVCGMQEMLDSVPEKRFPVCQAHGYFCQLIDGLEYLHSQGIVHKDIKPGNLLLTTGGTLKISDLGVAEALHPFAADDTCRTSQGSPAFQPPEIANGLDTFSGFKVDIWSAGVTLYNITTGLYPFEGDNIYKLFENIGKGSYAIPGDCGPPLSDLLKGMLEYEPAKRFSIRQIRQHSWFRKKHPPAEAPVPIPPSPDTKDRWRSMTVVPYLEDLHGADEDEDLFDIEDDIIYTQDFTVPGQVPEEEASHNGQRRGLPKAVCMNGTEAAQLSTKSRAEGRAPNPARKECSASSKIRRLSACKQQ [A417E] | 1.22 ± 0.18
3 | MEVVDPQQLGMFTEGELMSVGMDTFIHRIDSTEVIYQPRRKRAKLIGKYLMGDLLGEGSYGKVKEVLDSETLCRRAVKILKKKKLRRIPNGEANVKKEIQLLRRLRHKNVIQLVDVLYNEEKQKMYMVMEYCVCGMQEMLDSVPEKRFPVCQAHGYFCQLIDGLEYLHSQGIVHKDIKPGNLLLTTGGTLKISDLGVAEALHPFAADDTCRTSQGSPAFQPPEIANGLDTFSGFKVDIWSAGVTLYNITTGLYPFEGDNIYKLFENIGKGSYAIPGDCGPPLSDLLKGMLEYEPAKRFSIRQIRQHSWFRKKHPPAEAPVPIPPSPDTKDRWRSMTVVPYLEDLHGADEDEDLFDIEDDIIYTQDFTVPGQVPEEEASHNGQRRGLPKAVCMNGTEAAQLSTKSRAEGRAPNPARKDCSASSKIRRLSACKQQ [A417D] | 1.41 ± 0.36
4 | MEVVDPQQLGMFTEGELMSVGMDTFIHRIDSTEVIYQPRRKRAKLIGKYLMGDLLGEGSYGKVKEVLDSETLCRRAVKILKKKKLRRIPNGEANVKKEIQLLRRLRHKNVIQLVDVLYNEEKQKMYMVMEYCVCGMQEMLDSVPEKRFPVCQAHGYFCQLIDGLEYLHSQGIVHKDIKPGNLLLTTGGTLKISDLGVAEALHPFAADDTCRTSQGSPAFQPPEIANGLDTFSGFKVDIWSAGVTLYNITTGLYPFEGDNIYKLFENIGKGSYAIPGDCGPPLSDLLKGMLEYEPAKRFSIRQIRQHSWFRKKHPPAEAPVPIPPSPDTKDRWRSMTVVPYLEDLHGADEDEDLFDIEDDIIYTQDFTVPGQVPEEEASHNGQRRGLPKAVCMNGTEAAQLSTKSRAEGRAPNPARKCCSASSKIRRLSACKQQ [A417C] | 1.24 ± 0.52
5 | MEVVDPQQLGMFTEGELMSVGMDTFIHRIDSTEVIYQPRRKRAKLIGKYLMGDLLGEGSYGKVKEVLDSETLCRRAVKILKKKKLRRIPNGEANVKKEIQLLRRLRHKNVIQLVDVLYNEEKQKMYMVMEYCVCGMQEMLDSVPEKRFPVCQAHGYFCQLIDGLEYLHSQGIVHKDIKPGNLLLTTGGTLKISDLGVAEALHPFAADDTCRTSQGSPAFQPPEIANGLDTFSGFKVDIWSAGVTLYNITTGLYPFEGDNIYKLFENIGKGSYAIPGDCGPPLSDLLKGMLEYEPAKRFSIRQIRQHSWFRKKHPPAEAPVPIPPSPDTKDRWRSMTVVPYLEDLHGADEDEDLFDIEDDIIYTQDFTVPGQVPEEEASHNGQRRGLPKAVCMNGTEAAQLSTKSRAEGRAPNPARRACSASSKIRRLSACKQQ [K416R] | 1.54 ± 0.16
6 | MEVVDPQQLGMFTEGELMSVGMDTFIHRIDSTEVIYQPRRKRAKLIGKYLMGDLLGEGSYGKVKEVLDSETLCRRAVKILKKKKLRRIPNGEANVKKEIQLLRRLRHKNVIQLVDVLYNEEKQKMYMVMEYCVCGMQEMLDSVPEKRFPVCQAHGYFCQLIDGLEYLHSQGIVHKDIKPGNLLLTTGGTLKISDLGVAEALHPFAADDTCRTSQGSPAFQPPEIANGLDTFSGFKVDIWSAGVTLYNITTGLYPFEGDNIYKLFENIGKGSYAIPGDCGPPLSDLLKGMLEYEPAKRFSIRQIRQHSWFRKKHPPAEAPVPIPPSPDTKDRWRSMTVVPYLEDLHGADEDEDLFDIEDDIIYTQDFTVPGQVPEEEASHNGQRRGLPKAVCMNGTEAAQLSTKSRAEGRAPNPARMACSASSKIRRLSACKQQ [K416M] | 1.67 ± 0.35
7 | MEVVDPQQLGMFTEGELMSVGMDTFIHRIDSTEVIYQPRRKRAKLIGKYLMGDLLGEGSYGKVKEVLDSETLCRRAVKILKKKKLRRIPNGEANVKKEIQLLRRLRHKNVIQLVDVLYNEEKQKMYMVMEYCVCGMQEMLDSVPEKRFPVCQAHGYFCQLIDGLEYLHSQGIVHKDIKPGNLLLTTGGTLKISDLGVAEALHPFAADDTCRTSQGSPAFQPPEIANGLDTFSGFKVDIWSAGVTLYNITTGLYPFEGDNIYKLFENIGKGSYAIPGDCGPPLSDLLKGMLEYEPAKRFSIRQIRQHSWFRKKHPPAEAPVPIPPSPDTKDRWRSMTVVPYLEDLHGADEDEDLFDIEDDIIYTQDFTVPGQVPEEEASHNGQRRGLPKAVCMNGTEAAQLSTKSRAEGRAPNPARPACSASSKIRRLSACKQQ [K416P] | 1.61 ± 0.21
8 | MEVVDPQQLGMFTEGELMSVGMDTFIHRIDSTEVIYQPRRKRAKLIGKYLMGDLLGEGSYGKVKEVLDSETLCRRAVKILKKKKLRRIPNGEANVKKEIQLLRRLRHKNVIQLVDVLYNEEKQKMYMVMEYCVCGMQEMLDSVPEKRFPVCQAHGYFCQLIDGLEYLHSQGIVHKDIKPGNLLLTTGGTLKISDLGVAEALHPFAADDTCRTSQGSPAFQPPEIANGLDTFSGFKVDIWSAGVTLYNITTGLYPFEGDNIYKLFENIGKGSYAIPGDCGPPLSDLLKGMLEYEPAKRFSIRQIRQHSWFRKKHPPAEAPVPIPPSPDTKDRWRSMTVVPYLEDLHGADEDEDLFDIEDDIIYTQDFTVPGQVPEEEASHNGQRRGLPKAVCMNGTEAAQLSTKSRAEGRAPNPARWACSASSKIRRLSACKQQ [K416W] | 0.693 ± 0.27
9 | MEVVDPQQLGMFTEGELMSVGMDTFIHRIDSTEVIYQPRRKRAKLIGKYLMGDLLGEGSYGKVKEVLDSETLCRRAVKILKKKKLRRIPNGEANVKKEIQLLRRLRHKNVIQLVDVLYNEEKQKMYMVMEYCVCGMQEMLDSVPEKRFPVCQAHGYFCQLIDGLEYLHSQGIVHKDIKPGNLLLTTGGTLKISDLGVAEALHPFAADDTCRTSQGSPAFQPPEIANGLDTFSGFKVDIWSAGVTLYNITTGLYPFEGDNIYKLFENIGKGSYAIPGDCGPPLSDLLKGMLEYEPAKRFSIRQIRQHSWFRKKHPPAEAPVPIPPSPDTKDRWRSMTVVPYLEDLHGADEDEDLFDIEDDIIYTQDFTVPGQVPEEEASHNGQRRGLPKAVCMNGTEAAQLSTKSRAEGRAPNPARYACSASSKIRRLSACKQQ [K416Y] | 1.2 ± 0.58
10 | MEVVDPQQLGMFTEGELMSVGMDTFIHRIDSTEVIYQPRRKRAKLIGKYLMGDLLGEGSYGKVKEVLDSETLCRRAVKILKKKKLRRIPNGEANVKKEIQLLRRLRHKNVIQLVDVLYNEEKQKMYMVMEYCVCGMQEMLDSVPEKRFPVCQAHGYFCQLIDGLEYLHSQGIVHKDIKPGNLLLTTGGTLKISDLGVAEALHPFAADDTCRTSQGSPAFQPPEIANGLDTFSGFKVDIWSAGVTLYNITTGLYPFEGDNIYKLFENIGKGSYAIPGDCGPPLSDLLKGMLEYEPAKRFSIRQIRQHSWFRKKHPPAEAPVPIPPSPDTKDRWRSMTVVPYLEDLHGADEDEDLFDIEDDIIYTQDFTVPGQVPEEEASHNGQRRGLPKAVCMNGTEAAQLSTKSRAEGRAPNPARSACSASSKIRRLSACKQQ [K416S] | 1.55 ± 0.2
11 | MEVVDPQQLGMFTEGELMSVGMDTFIHRIDSTEVIYQPRRKRAKLIGKYLMGDLLGEGSYGKVKEVLDSETLCRRAVKILKKKKLRRIPNGEANVKKEIQLLRRLRHKNVIQLVDVLYNEEKQKMYMVMEYCVCGMQEMLDSVPEKRFPVCQAHGYFCQLIDGLEYLHSQGIVHKDIKPGNLLLTTGGTLKISDLGVAEALHPFAADDTCRTSQGSPAFQPPEIANGLDTFSGFKVDIWSAGVTLYNITTGLYPFEGDNIYKLFENIGKGSYAIPGDCGPPLSDLLKGMLEYEPAKRFSIRQIRQHSWFRKKHPPAEAPVPIPPSPDTKDRWRSMTVVPYLEDLHGADEDEDLFDIEDDIIYTQDFTVPGQVPEEEASHNGQRRGLPKAVCMNGTEAAQLSTKSRAEGRAPNPARTACSASSKIRRLSACKQQ [K416T] | 1.37 ± 0.65
12 | MEVVDPQQLGMFTEGELMSVGMDTFIHRIDSTEVIYQPRRKRAKLIGKYLMGDLLGEGSYGKVKEVLDSETLCRRAVKILKKKKLRRIPNGEANVKKEIQLLRRLRHKNVIQLVDVLYNEEKQKMYMVMEYCVCGMQEMLDSVPEKRFPVCQAHGYFCQLIDGLEYLHSQGIVHKDIKPGNLLLTTGGTLKISDLGVAEALHPFAADDTCRTSQGSPAFQPPEIANGLDTFSGFKVDIWSAGVTLYNITTGLYPFEGDNIYKLFENIGKGSYAIPGDCGPPLSDLLKGMLEYEPAKRFSIRQIRQHSWFRKKHPPAEAPVPIPPSPDTKDRWRSMTVVPYLEDLHGADEDEDLFDIEDDIIYTQDFTVPGQVPEEEASHNGQRRGLPKAVCMNGTEAAQLSTKSRAEGRAPNPARVACSASSKIRRLSACKQQ [K416V] | 1.39 ± 0.36
13 | MEVVDPQQLGMFTEGELMSVGMDTFIHRIDSTEVIYQPRRKRAKLIGKYLMGDLLGEGSYGKVKEVLDSETLCRRAVKILKKKKLRRIPNGEANVKKEIQLLRRLRHKNVIQLVDVLYNEEKQKMYMVMEYCVCGMQEMLDSVPEKRFPVCQAHGYFCQLIDGLEYLHSQGIVHKDIKPGNLLLTTGGTLKISDLGVAEALHPFAADDTCRTSQGSPAFQPPEIANGLDTFSGFKVDIWSAGVTLYNITTGLYPFEGDNIYKLFENIGKGSYAIPGDCGPPLSDLLKGMLEYEPAKRFSIRQIRQHSWFRKKHPPAEAPVPIPPSPDTKDRWRSMTVVPYLEDLHGADEDEDLFDIEDDIIYTQDFTVPGQVPEEEASHNGQRRGLPKAVCMNGTEAAQLSTKSRAEGRAPNPARNACSASSKIRRLSACKQQ [K416N] | 0.923 ± 0.4
14 | MEVVDPQQLGMFTEGELMSVGMDTFIHRIDSTEVIYQPRRKRAKLIGKYLMGDLLGEGSYGKVKEVLDSETLCRRAVKILKKKKLRRIPNGEANVKKEIQLLRRLRHKNVIQLVDVLYNEEKQKMYMVMEYCVCGMQEMLDSVPEKRFPVCQAHGYFCQLIDGLEYLHSQGIVHKDIKPGNLLLTTGGTLKISDLGVAEALHPFAADDTCRTSQGSPAFQPPEIANGLDTFSGFKVDIWSAGVTLYNITTGLYPFEGDNIYKLFENIGKGSYAIPGDCGPPLSDLLKGMLEYEPAKRFSIRQIRQHSWFRKKHPPAEAPVPIPPSPDTKDRWRSMTVVPYLEDLHGADEDEDLFDIEDDIIYTQDFTVPGQVPEEEASHNGQRRGLPKAVCMNGTEAAQLSTKSRAEGRAPNPARQACSASSKIRRLSACKQQ [K416Q] | 1.46 ± 0.38
